# Literature values in article PMC2871139.
# Read-outs that look alike come from different tables or passages of the source.
# Experiments:
# A1 [1] = target: A1 (UniProt Q07440)
# A1 [2] = target: A1 (UniProt Q07440); remark: listed apart in the source
# A1 [3] = target: A1 (UniProt Q07440); remark: listed apart in the source
# A1 [4] = target: A1 (UniProt Q07440); remark: listed apart in the source
# UniProt Q07440, sequence (Q07440 whole entry): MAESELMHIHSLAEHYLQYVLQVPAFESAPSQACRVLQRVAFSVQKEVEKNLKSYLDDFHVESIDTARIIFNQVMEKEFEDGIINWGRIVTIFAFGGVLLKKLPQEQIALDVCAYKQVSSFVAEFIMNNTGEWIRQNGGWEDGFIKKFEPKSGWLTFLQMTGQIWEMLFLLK
substance,measurement,setting,value
Bid BH3 (from UniProt P70444),Kd,A1 [1],< 3 nM
Bmf BH3 (from UniProt Q91ZE9),Kd,A1 [2],180 nM
Puma BH3 (from UniProt Q9BXH1),Kd,A1 [3],< 3 nM
Bak BH3 (from UniProt O08734),Kd,A1 [4],< 3 nM
